# Test results: patent US20230265151A1, “GIP/GLP1 CO-AGONIST COMPOUNDS” (priority 2020, published 2023)
# B1: Example 40 (peptide)
# peptide: YXEGTXTSDXSIXLDXKAQXEFIXXLIEGGKSSGAPPPS
# modifications: Aib2, αMeF(2F)6, 4Pal10, αMeL13, Orn16, Aib20, D-Glu24, αMeY25, K17 and K31: K((εK)-(εK)-(γ-Glu)-CO-(CH2)12-CO2H), C-terminal NH2
# B2: Example 7 (peptide)
# peptide: YXEGTXTSDXSIXLDXKAQXEFIXXLIEGGKSSGAPPPS
# modifications: Aib2, αMeF(2F)6, 4Pal10, αMeL13, Orn16, Aib20, D-Glu24, αMeY25, K17 and K31: K(AEEA2-(γ-Glu)-CO-(CH2)14-CH3), C-terminal NH2
# B3: Example 50 (peptide)
# peptide: YXEGTXTSDYXIXLDXKAQXEFIXXLIEGGKSSGAPPPS
# modifications: Aib2, αMeF(2F)6, Aib11, αMeL13, Orn16, Aib20, D-Glu24, αMeY25, K17 and K31: K(AEEA2-(γ-Glu)-CO-(CH2)12-CO2H), C-terminal NH2
# B4: Example 60 (peptide)
# peptide: YXEGTXTSDXSIXLDXKAQXEFIXXLIEGGKSSGAPPPS
# modifications: Aib2, αMeF(2F)6, Nle10, αMeL13, Orn16, Aib20, D-Glu24, αMeY25, K17 and K31: K(AEEA2-(γ-Glu)-CO-(CH2)12-CO2H), C-terminal NH2
# B5: Example 66 (peptide)
# peptide: YXEGTXTSDXSIXLDXKAQXEXIXXLIEGGKSSGAPPPS
# modifications: Aib2, αMeF(2F)6, 4Pal10, αMeL13, Orn16, Aib20, 1Nal22, D-Glu24, αMeY25, K17 and K31: K(AEEA2-(γ-Glu)-CO-(CH2)12-CO2H), C-terminal NH2
# B6: Example 51 (peptide)
# peptide: YXEGTXTSDXSIXLDXKAQXEFIXXLIEGGKSSGAPPPS
# modifications: Aib2, αMeF(2F)6, αMeL10, αMeL13, Orn16, Aib20, D-Glu24, αMeY25, K17 and K31: K(AEEA2-(γ-Glu)-CO-(CH2)12-CO2H), C-terminal NH2
# B7: Example 4 (peptide)
# peptide: YXEGTXTSDXSIXLDXKAQXEFIXXLIEGGKSSGAPPPS
# modifications: Aib2, αMeF(2F)6, 4Pal10, αMeL13, Orn16, Aib20, D-Glu24, αMeY25, K17 and K31: K(AEEA2-(γ-Glu)-(4-(4-tert-butylphenyl)butanoyl)), C-terminal NH2
# B8: Example 52 (peptide)
# peptide: YXEGTXTSDXSIXLDXKAQXEFIXXLIEGGKSSGAPPPS
# modifications: Aib2, αMeF(2F)6, αMeV10, αMeL13, Orn16, Aib20, D-Glu24, αMeY25, K17 and K31: K(AEEA2-(γ-Glu)-CO-(CH2)12-CO2H), C-terminal NH2
# B9: Example 56 (peptide)
# peptide: YXEGTXTSDXSIXLDXKAQXEFIXXLIEGGKSSGAPPPS
# modifications: Aib2, αMeF(2F)6, 1Nal10, αMeL13, Orn16, Aib20, D-Glu24, αMeY25, K17 and K31: K(AEEA2-(γ-Glu)-CO-(CH2)12-CO2H), C-terminal NH2
# B10: Example 62 (peptide)
# peptide: YXEGTXTSDXSIXLDXKAQXEXIXXLIEGGKSSGAPPPS
# modifications: Aib2, αMeF(2F)6, 4Pal10, αMeL13, Orn16, Aib20, 3ClPhe22, D-Glu24, αMeY25, K17 and K31: K(AEEA2-(γ-Glu)-CO-(CH2)12-CO2H), C-terminal NH2
# B11: Example 61 (peptide)
# peptide: YXEGTXTSDXSIXLDXKAQXEXIXXLIEGGKSSGAPPPS
# modifications: Aib2, αMeF(2F)6, 4Pal10, αMeL13, Orn16, Aib20, 2ClPhe22, D-Glu24, αMeY25, K17 and K31: K(AEEA2-(γ-Glu)-CO-(CH2)12-CO2H), C-terminal NH2
# B12: Example 44 (peptide)
# peptide: YXEGTXTSDXSIXLDXKAQXEFIXXLIEGGKSSGAPPPS
# modifications: Aib2, αMeF6, 4Pal10, αMeL13, Orn16, Aib20, D-Glu24, αMeY25, K17 and K31: K(AEEA2-(γ-Glu)-CO-(CH2)12-CO2H), C-terminal NH2
# B13: Example 43 (peptide)
# peptide: YXEGTXTSDXSIXLDXKAQXEFIXXLIEGGKSSGAPPPS
# modifications: Aib2, αMeF(2F)6, 4Pal10, αMeL13, Orn16, Aib20, D-Glu24, αMeY25, K17 and K31: K(AEEA-(γ-Glu)-AEEA-CO-(CH2)12-CO2H), C-terminal NH2
# B14: Example 54 (peptide)
# peptide: YXEGTXTSDXSIXLDXKAQXEFIXXLIEGGKSSGAPPPS
# modifications: Aib2, αMeF(2F)6, Ac6c10, αMeL13, Orn16, Aib20, D-Glu24, αMeY25, K17 and K31: K(AEEA2-(γ-Glu)-CO-(CH2)12-CO2H), C-terminal NH2
# B15: Example 53 (peptide)
# peptide: YXEGTXTSDXSIXLDXKAQXEFIXXLIEGGKSSGAPPPS
# modifications: Aib2, αMeF(2F)6, Ac5c10, αMeL13, Orn16, Aib20, D-Glu24, αMeY25, K17 and K31: K(AEEA2-(γ-Glu)-CO-(CH2)12-CO2H), C-terminal NH2
# B16: Example 3 (peptide)
# peptide: YXEGTXTSDXSIXLDXKAQXEFIXXLIEGGKSSGAPPPS
# modifications: Aib2, αMeF(2F)6, 4Pal10, αMeL13, Orn16, Aib20, D-Glu24, αMeY25, K17 and K31: K(AEEA2-(γ-Glu)-(4-(4-iodophenyl)butanoyl)), C-terminal NH2
# B17: Example 8 (peptide)
# peptide: YXEGTXTSDXSIXLDXKAQXEFIXXLIEGGKSSGAPPPS
# modifications: Aib2, αMeF(2F)6, 4Pal10, αMeL13, Orn16, Aib20, D-Glu24, αMeY25, K17 and K31: K(AEEA2-(γ-Glu)-CO-(CH2)12-CH3), C-terminal NH2
# B18: Example 65 (peptide)
# peptide: YXEGTXTSDXSIXLDXKAQXEXIXXLIEGGKSSGAPPPS
# modifications: Aib2, αMeF(2F)6, 4Pal10, αMeL13, Orn16, Aib20, 3,5FPhe22, D-Glu24, αMeY25, K17 and K31: K(AEEA2-(γ-Glu)-CO-(CH2)12-CO2H), C-terminal NH2
# B19: Example 73 (peptide)
# peptide: YXEGTXTSDXSIXLDXIAQXKFIXXLIKGGPSSGAPPPS
# modifications: Aib2, αMeF(2F)6, 4Pal10, αMeL13, Orn16, Aib20, D-Glu24, αMeY25, K21 and K28: K(AEEA2-(γ-Glu)-CO-(CH2)12-CO2H), C-terminal NH2
# How the values were obtained:
# Experiment in all cases: cell-based or functional assay
# human GIP receptor = biological target: T1, human GIP receptor (human, UniProt P48546 22-466)
# T1 sequence (looked up): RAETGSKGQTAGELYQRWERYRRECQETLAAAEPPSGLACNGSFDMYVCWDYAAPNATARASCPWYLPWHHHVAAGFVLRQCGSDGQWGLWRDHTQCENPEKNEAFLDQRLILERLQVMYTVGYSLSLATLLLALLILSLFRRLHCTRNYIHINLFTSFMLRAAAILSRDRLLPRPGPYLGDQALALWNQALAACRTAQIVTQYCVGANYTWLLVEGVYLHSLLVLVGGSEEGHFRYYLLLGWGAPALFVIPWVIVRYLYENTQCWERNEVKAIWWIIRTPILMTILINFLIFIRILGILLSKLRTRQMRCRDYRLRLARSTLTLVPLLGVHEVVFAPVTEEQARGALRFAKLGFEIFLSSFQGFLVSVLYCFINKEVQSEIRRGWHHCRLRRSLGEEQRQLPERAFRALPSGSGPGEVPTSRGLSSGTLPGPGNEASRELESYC
# human GLP-1 receptor = human GLP-1 receptor (human, UniProt P43220 24-463)
# human glucagon receptor = human glucagon receptor (human, UniProt P47871 26-477)
binder,measurement,setting,value
B1,"EC50, cAMP",human GIP receptor,0.0116 nM
same,"EC50, cAMP",human GLP-1 receptor,0.279 nM
same,"EC50, cAMP",human glucagon receptor,> 9.95 µM
B2,"EC50, cAMP",human GIP receptor,0.00327 nM
same,"EC50, cAMP",human GLP-1 receptor,0.00676 nM
same,"EC50, cAMP",human glucagon receptor,> 9.95 µM
B3,"EC50, cAMP",human GIP receptor,0.0168 nM
same,"Emax, cAMP",human GIP receptor,94.7%
same,"EC50, cAMP",human GLP-1 receptor,0.273 nM
same,"EC50, cAMP",human glucagon receptor,> 9.95 µM
B4,"EC50, cAMP",human GIP receptor,0.0126 nM
same,"EC50, cAMP",human GLP-1 receptor,0.19 nM
same,"EC50, cAMP",human glucagon receptor,> 9.95 µM
B5,"EC50, cAMP",human GIP receptor,0.0168 nM
same,"EC50, cAMP",human GLP-1 receptor,0.355 nM
same,"EC50, cAMP",human glucagon receptor,> 9.95 µM
B6,"EC50, cAMP",human GIP receptor,0.11 nM
same,"EC50, cAMP",human GLP-1 receptor,0.89 nM
same,"EC50, cAMP",human glucagon receptor,> 9.95 µM
B7,"EC50, cAMP",human GIP receptor,0.00962 nM
same,"EC50, cAMP",human GLP-1 receptor,0.137 nM
same,"EC50, cAMP",human glucagon receptor,> 9.95 µM
B8,"EC50, cAMP",human GIP receptor,0.258 nM
same,"EC50, cAMP",human GLP-1 receptor,0.384 nM
same,"EC50, cAMP",human glucagon receptor,> 9.95 µM
B9,"EC50, cAMP",human GIP receptor,0.0138 nM
same,"Emax, cAMP",human GIP receptor,90.3%
same,"EC50, cAMP",human GLP-1 receptor,0.205 nM
same,"EC50, cAMP",human glucagon receptor,> 9.95 µM
B10,"EC50, cAMP",human GIP receptor,0.0211 nM
same,"EC50, cAMP",human GLP-1 receptor,0.48 nM
same,"Emax, cAMP",human GLP-1 receptor,99.4%
same,"EC50, cAMP",human glucagon receptor,> 9.95 µM
B11,"EC50, cAMP",human GIP receptor,0.012 nM
same,"EC50, cAMP",human GLP-1 receptor,1.35 nM
same,"Emax, cAMP",human GLP-1 receptor,82.9%
same,"EC50, cAMP",human glucagon receptor,> 9.95 µM
B12,"EC50, cAMP",human GIP receptor,0.0637 nM
same,"EC50, cAMP",human GLP-1 receptor,4.77 nM
same,"EC50, cAMP",human glucagon receptor,> 9.95 µM
B13,"EC50, cAMP",human GIP receptor,0.0123 nM
same,"EC50, cAMP",human GLP-1 receptor,0.821 nM
same,"EC50, cAMP",human glucagon receptor,> 9.95 µM
B14,"EC50, cAMP",human GIP receptor,0.0675 nM
same,"Emax, cAMP",human GIP receptor,113%
same,"EC50, cAMP",human GLP-1 receptor,0.538 nM
same,"EC50, cAMP",human glucagon receptor,> 9.95 µM
B15,"EC50, cAMP",human GIP receptor,0.0841 nM
same,"EC50, cAMP",human GLP-1 receptor,0.18 nM
same,"EC50, cAMP",human glucagon receptor,> 9.95 µM
B16,"EC50, cAMP",human GIP receptor,0.0133 nM
same,"EC50, cAMP",human GLP-1 receptor,0.223 nM
same,"EC50, cAMP",human glucagon receptor,> 9.95 µM
B17,"EC50, cAMP",human GIP receptor,0.00307 nM
same,"EC50, cAMP",human GLP-1 receptor,0.0157 nM
same,"EC50, cAMP",human glucagon receptor,> 9.95 µM
B18,"EC50, cAMP",human GIP receptor,0.0139 nM
same,"EC50, cAMP",human GLP-1 receptor,0.3 nM
same,"EC50, cAMP",human glucagon receptor,> 9.95 µM
B19,"EC50, cAMP",human GIP receptor,0.0207 nM
same,"Emax, cAMP",human GIP receptor,97.1%
same,"EC50, cAMP",human GLP-1 receptor,0.437 nM
same,"EC50, cAMP",human glucagon receptor,> 9.95 µM
